Data set [1] concerns the target T1, soluble PDZK1 purified from bacteria (human, UniProt Q5T2W1 1-519).
T1 sequence (looked up): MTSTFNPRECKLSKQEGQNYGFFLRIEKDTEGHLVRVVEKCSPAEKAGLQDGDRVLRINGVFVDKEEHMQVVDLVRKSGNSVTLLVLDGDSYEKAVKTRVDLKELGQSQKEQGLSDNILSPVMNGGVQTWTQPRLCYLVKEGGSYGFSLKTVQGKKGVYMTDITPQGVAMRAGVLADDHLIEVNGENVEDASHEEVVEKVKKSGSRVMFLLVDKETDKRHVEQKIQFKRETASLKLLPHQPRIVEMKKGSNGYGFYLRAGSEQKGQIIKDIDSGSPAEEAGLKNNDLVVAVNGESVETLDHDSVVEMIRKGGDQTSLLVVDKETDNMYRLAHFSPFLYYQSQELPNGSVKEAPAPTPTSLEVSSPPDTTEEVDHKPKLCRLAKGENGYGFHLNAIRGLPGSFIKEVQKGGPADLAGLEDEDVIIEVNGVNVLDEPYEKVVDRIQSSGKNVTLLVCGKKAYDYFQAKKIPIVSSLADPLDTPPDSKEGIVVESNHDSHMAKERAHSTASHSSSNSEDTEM
In words: pull-down.

Data set [2] has as its target T2, soluble PDZK1 ΔDTEM purified from bacteria (human, UniProt Q5T2W1 1-515).
T2 sequence (looked up): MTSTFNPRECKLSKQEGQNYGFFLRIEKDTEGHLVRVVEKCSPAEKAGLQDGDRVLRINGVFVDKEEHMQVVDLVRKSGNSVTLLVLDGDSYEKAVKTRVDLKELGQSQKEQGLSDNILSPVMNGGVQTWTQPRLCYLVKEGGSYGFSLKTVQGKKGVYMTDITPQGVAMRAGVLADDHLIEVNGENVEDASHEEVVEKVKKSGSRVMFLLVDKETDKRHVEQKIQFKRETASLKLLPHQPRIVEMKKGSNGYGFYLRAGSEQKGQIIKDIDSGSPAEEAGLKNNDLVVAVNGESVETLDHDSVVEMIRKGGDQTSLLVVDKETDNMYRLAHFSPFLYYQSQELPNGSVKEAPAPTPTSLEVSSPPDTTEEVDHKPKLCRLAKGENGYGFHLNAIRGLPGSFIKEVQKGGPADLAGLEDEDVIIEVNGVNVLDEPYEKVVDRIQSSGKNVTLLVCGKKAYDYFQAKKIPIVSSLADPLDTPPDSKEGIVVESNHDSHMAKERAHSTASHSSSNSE
In words: pull-down.

The data set “cross-linking” concerns the molecule itself. Nature of the data set: cross-linking.

B1: GST-PDZK1-tail (domain or fragment, human, UniProt Q5T2W1 458-519, looked up)
chain: KAYDYFQAKKIPIVSSLADPLDTPPDSKEGIVVESNHDSHMAKERAHSTASHSSSNSEDTEM
Take B1: the binding result in data set [1] and in data set [2] was “binds” throughout.

B2: PDZK1 PDZs 3 and 4 to the end of the protein (amino acids 227–515), soluble (domain or fragment, human, UniProt Q5T2W1 227-515, looked up)
chain: FKRETASLKLLPHQPRIVEMKKGSNGYGFYLRAGSEQKGQIIKDIDSGSPAEEAGLKNNDLVVAVNGESVETLDHDSVVEMIRKGGDQTSLLVVDKETDNMYRLAHFSPFLYYQSQELPNGSVKEAPAPTPTSLEVSSPPDTTEEVDHKPKLCRLAKGENGYGFHLNAIRGLPGSFIKEVQKGGPADLAGLEDEDVIIEVNGVNVLDEPYEKVVDRIQSSGKNVTLLVCGKKAYDYFQAKKIPIVSSLADPLDTPPDSKEGIVVESNHDSHMAKERAHSTASHSSSNSE
B2: the “stoichiometry N” value in the data set “cross-linking” worked out at 2.

A word on the stoichiometry N: it is the number of molecules, sites or subunits per partner or assembly.
